The values that follow come from patent US20240424125A1 (Zymeworks, published 2024).

In experiment [1] the target is T1, recombinant His-tagged human FRα (ACROBiosystems) (human, UniProt P15328 25-233).
T1 construct: also called hFRα; hFRα antigen; not shown: His tag
As to the kind of experiment: BLI (Octet RED96): antibody loaded on anti-human IgG Fc capture biosensors, His-tagged hFRα in solution. Six traces with fit lines plateau between about 0.06 and 0.36 nm during 0-400 s association and return to baseline by about 520 s. The legend prints the same globally fitted KD for all six traces (single run; the text prints only the mean of n=2). The procedure: (§1) The assay buffer used was KB buffer (kinetics buffer, composed of PBS pH 7.4, 0.1% BSA, 0.02% Tween 20, 0.05% sodium azide) supplemented with 0.06% Tween 20 and in some instances also with 1% BSA. The experiment was conducted at 30° C. with a shake speed of 1000 rpm.
(§2) Data analysis was performed using Data Analysis Software 9.0 (ForteBio, Fremont CA). The reference-subtracted binding curves were globally fitted to the 1:1 interaction model to generate the binding kinetic parameters kₒₙ, koff, and the dissociation constant KD.
In general terms: BLI is a label-free optical method that tracks binding on a fibre tip over time.

Experiment [2] deals with T1, recombinant His-tagged human FRα …. Put plainly: SPR (Biacore T200): hFRα amine-coupled to CM5 chip at medium-low antigen density, bivalent FSA injected, 1:1 Langmuir fit, mean of n=2. Here is the method:
(§3) CM5 Series S sensor chip, Biacore™ amine coupling kit (NHS, EDC and 1 M ethanolamine), and 10 mM sodium acetate buffers were purchased from GE Healthcare Life Science (Mississauga, ON, Canada). PBS running buffer with 0.05% Tween20 (PBST) was purchased from Teknova Inc. (Hollister, CA). Recombinant human FRα was purchased from ACRObiosystems (Newark, DE).
(§4) Screening of the variants for binding to hFRα antigen was conducted in two steps: capture of hFRα onto surface, followed by injection of three to five concentrations of variant. The hFRα surface was prepared on a CM5 Series S sensor chip by standard amine coupling methods as described by the manufacturer (GE Healthcare Life Science, Mississauga, ON, Canada). The immobilization of the hFRα was performed using Biacore™ T200 immobilization wizard with an amine coupling method aiming for resonance units (RUs) ranging from 5 to 200 RUs. Using multi-cycle kinetics, three to five concentrations of a two-fold dilution series of samples starting at 300 nM with a blank buffer control were injected at 50 uL/min for 180s with a 600s dissociation phase, resulting in a set of sensorgrams with a buffer blank reference. The hFRα surface was regenerated to prepare for the next injection cycle by one pulse of 10 mM glycine/HCl pH 1.5 for 30s at 30 uL/min. Blank-subtracted sensorgrams were analyzed using Biacore™ T200 Evaluation Software v3.0. The blank-subtracted sensorgrams were then fit to the 1:1 Langmuir binding model.
(In SPR one partner is held on a chip, and binding of the other changes the refractive index at the surface.)

Experiment [3] has the same target. As to the kind of experiment: SPR (Biacore T200), high antigen density; end of the range tied to v30384 by Table 8.3. Here is the method: as §4
Experiment [4] has the same target. Put plainly: BLI (Octet RED96): antibody on anti-human IgG Fc capture biosensor, His-tagged hFRα as analyte, 1:1 global fit, mean of n=2. Here is the method: as §1, §2
The target in experiment [5] is T2, human FRα on cells (human, UniProt P15328 25-234). As to the kind of experiment: cell-based or functional assay.
The target of experiment [6] is T1, recombinant His-tagged human FRα …. Put plainly: BLI (Octet RED96) as in Example 8: antibody captured, His-tagged hFRα as analyte, mean of n=2. Here is the method:
as §1, §2

The target of experiment [7] is T2, human FRα on cells. As to the kind of experiment: apparent Kd, flow cytometry on HEC-1-A cells (endogenous FRα), 24 h at 4°C. The procedure:
(§5) Briefly, cells were seeded at 50,000 cells/well in V-bottom 96-well plates and treated with antibody for 24 hours at 4° C. to prevent internalization. […] Following incubation and washing, fluorescence was detected by flow cytometry on a BD LSRFortessa™ Cell Analyzer (BD Biosciences, Franklin Lake, NJ) with 1,000 minimum events collected per well. AF647/APC-A GeoMean (fluorescence signal geometric mean, proportional to anti-Human AF647 binding) in live cell population was plotted using GraphPad Prism Version 9 (GraphPad Software, San Diego, CA).
A general note: Flow cytometry measures light scatter and fluorescence of single cells or particles in a stream.

The target in experiment [8] is T1, recombinant His-tagged human FRα …. Put plainly: SPR (Biacore T200): hFRα amine-coupled to CM5 chip at high antigen density, bivalent FSA injected, 1:1 Langmuir fit, mean of n=2. The procedure:
as §3, §4

The target in experiment [9] is T2, human FRα on cells. Put plainly: apparent Kd, flow cytometry on JEG-3 cells (endogenous FRα), 24 h at 4°C. Here is the method:
as §5

The target of experiment [10] is T2, human FRα on cells. As to the kind of experiment: apparent Kd, flow cytometry on JEG-3 cells (endogenous FRα), as in Example 16. Here is the method:
as §5

Experiment [11] has as its target T2, human FRα on cells. Put plainly: apparent Kd, flow cytometry on IGROV-1 cells (endogenous FRα), as in Example 16. The procedure: as §5
In experiment [12] the target is T1, recombinant His-tagged human FRα …. As to the kind of experiment: SPR (Biacore T200): hFRα amine-coupled to CM5 chip at medium antigen density, bivalent FSA injected, 1:1 Langmuir fit, mean of n=2. Here is the method:
as §3, §4

Experiment [13] shares this target. As to the kind of experiment: BLI (Octet RED96); end of the range tied to v31426 by Table 8.1. The procedure:
as §1, §2

For experiment [14] the target is unchanged. Put plainly: BLI (Octet RED96); end of the range tied to v30394 by Table 8.1. The procedure: as §1, §2
The target is the same in experiment [15]. Put plainly: SPR (Biacore T200), high antigen density; end of the range tied to v30399 by Table 8.3. The procedure:
as §4

T1 sequence (P15328 25-233 limits assumed): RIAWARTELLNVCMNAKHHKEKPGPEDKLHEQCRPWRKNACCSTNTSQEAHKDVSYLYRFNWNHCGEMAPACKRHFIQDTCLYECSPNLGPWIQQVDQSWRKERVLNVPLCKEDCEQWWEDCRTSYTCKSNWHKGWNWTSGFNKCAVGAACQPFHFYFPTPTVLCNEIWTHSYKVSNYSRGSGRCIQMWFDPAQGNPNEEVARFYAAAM
T2 sequence (P15328 25-234 limits assumed): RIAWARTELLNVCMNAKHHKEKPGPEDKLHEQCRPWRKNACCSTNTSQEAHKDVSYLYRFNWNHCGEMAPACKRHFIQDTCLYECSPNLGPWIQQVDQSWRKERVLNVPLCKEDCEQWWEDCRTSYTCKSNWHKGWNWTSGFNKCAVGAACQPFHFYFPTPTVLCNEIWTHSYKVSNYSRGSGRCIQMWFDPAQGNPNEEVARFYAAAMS

B1: v30384 (antibody, human IgG1, kappa)
heavy 1: EVQLLESGGGLVQPGGSLRLSCAVSGFSLSSYGVSWVRQAPGKGLEWIGAVNSGGSAYYADSVKGRSTISRDNSKNTVYLQMNSLRAEDTAVYYCARSGSGYPMDYLAIWGQGTLVTVSSASTKGPSVFPLAPSSKSTSGGTAALGCLVKDYFPEPVTVSWNSGALTSGVHTFPAVLQSSGLYSLSSVVTVPSSSLGTQTYICNVNHKPSNTKVDKKVEPKSCDKTHTCPPCPAPELLGGPSVFLFPPKPKDTLMISRTPEVTCVVVDVSHEDPEVKFNWYVDGVEVHNAKTKPREEQYNSTYRVVSVLTVLHQDWLNGKEYKCKVSNKALPAPIEKTISKAKGQPREPQVYVYPPSRDELTKNQVSLTCLVKGFYPSDIAVEWESNGQPENNYKTTPPVLDSDGSFALVSKLTVDKSRWQQGNVFSCSVMHEALHNHYTQKSLSLSPG
heavy 2: not shown
light: DYQMTQSPSSVSASVGDRVTITCRASQSIGDWLAWYQQKPGKAPKLLIYEASTLASGVPSRFSGSGSGTDFTLTISSVQPEDAATYYCQQGYGRSNVDNIFGGGTKVEVKRTVAAPSVFIFPPSDEQLKSGTASVVCLLNNFYPREAKVQWKVDNALQSGNSQESVTEQDSKDSTYSLSSTLTLSKADYEKHKVYACEVTHQGLSSPVTKSFNRGEC
notes: Humanized full-size IgG1/kappa antibody with heterodimeric Fc (HetFc); also called humanized variant v30384; parental humanized
In the case of B1, the Kd turned out to be 109 nM in experiment [1]; 3.76 nM in [2]; 110 nM in experiment [4]; 127 nM in experiment [6]; 0.07 nM in the experiment with human FRα on cells [7]; 0.79 nM in experiment [8]. Besides, the Kd stood at 0.31 nM with human FRα on cells [9], 0.5 nM with human FRα on cells [10], 1.38 nM with human FRα on cells [11] and 2.58 nM in [12]. Besides, the “fold lower KD in FSA compared to one-armed antibody (OAA) format” value in [3] is 181 fold. Besides, the “fold increase in internalized fluorescence compared to farletuzumab; IGROV-1 cells, 6-hour incubation, 5 nM” value with human FRα on cells [5] was 19.1 fold. The “fold increase in internalized fluorescence compared to farletuzumab; IGROV-1 cells, 6-hour incubation, 25 nM” value with human FRα on cells [5] is 6.1 fold. For the same molecule, the “fold increase in internalized fluorescence compared to farletuzumab; IGROV-1 cells, 24-hour incubation, 5 nM” value with human FRα on cells [5] worked out at 4.7 fold. In the experiment with human FRα on cells [5], the “fold increase in internalized fluorescence compared to farletuzumab; IGROV-1 cells, 24-hour incubation, 25 nM” value is 3.9 fold. Moreover, the “fold increase in internalized fluorescence compared to mirvetuximab; IGROV-1 cells, 6-hour incubation, 5 nM” value with human FRα on cells [5] was determined as 2.6 fold. For the same molecule, the “fold increase in internalized fluorescence compared to mirvetuximab; IGROV-1 cells, 6-hour incubation, 25 nM” value with human FRα on cells [5] was determined as 3.3 fold. Also, the “fold increase in internalized fluorescence compared to mirvetuximab; IGROV-1 cells, 24-hour incubation, 5 nM” value in the experiment with human FRα on cells [5] came to 1.9 fold. The “fold increase in internalized fluorescence compared to mirvetuximab; IGROV-1 cells, 24-hour incubation, 25 nM” value with human FRα on cells [5] amounted to 2.1 fold.

B2: v31426 (antibody, human IgG1, kappa)
heavy: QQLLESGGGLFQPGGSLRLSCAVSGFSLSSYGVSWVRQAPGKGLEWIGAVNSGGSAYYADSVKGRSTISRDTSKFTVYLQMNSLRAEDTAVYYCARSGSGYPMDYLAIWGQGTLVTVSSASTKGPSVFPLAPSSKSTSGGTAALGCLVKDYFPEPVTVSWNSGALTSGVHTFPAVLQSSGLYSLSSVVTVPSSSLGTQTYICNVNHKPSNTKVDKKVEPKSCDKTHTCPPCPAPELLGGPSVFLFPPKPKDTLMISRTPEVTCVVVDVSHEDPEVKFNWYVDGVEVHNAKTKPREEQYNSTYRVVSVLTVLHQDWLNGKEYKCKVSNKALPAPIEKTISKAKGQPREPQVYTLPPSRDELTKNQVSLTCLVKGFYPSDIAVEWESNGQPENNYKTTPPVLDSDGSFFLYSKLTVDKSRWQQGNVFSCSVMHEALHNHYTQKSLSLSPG
light: DYQMTQSPSSVSASVGDRVTITCRASQSIGDWLAWYQQKPGKAPKLLIYEASTLASGVPSRFSGSGSGTDFTLTISSVQPEDAATYYCQQGYGRSNVDNIFGGGTKVEVKRTVAAPSVFIFPPSDEQLKSGTASVVCLLNNFYPREAKVQWKVDNALQSGNSQESVTEQDSKDSTYSLSSTLTLSKADYEKHKVYACEVTHQGLSSPVTKSFNRGEC
notes: Humanized IgG1/kappa, HomoFc; also called 3gH4L
Take B2: the Kd in [4] turned out to be 210 nM. Moreover, the “fold reduced affinity compared to the parental chimera antibody v23924” value in [13] amounted to 8 fold.

B3: v30394 (antibody, human IgG1, kappa)
heavy 1: EVQLLESGGGLVQPGGSLRLSCAVSGFSLSSYGVSWVRQAPGKGLEWIGAVNSGGSAYYADWAKGRSTISRDNSKNTVYLQMNSLRAEDTAVYYCARSGSGYPMDYLAIWGQGTLVTVSSASTKGPSVFPLAPSSKSTSGGTAALGCLVKDYFPEPVTVSWNSGALTSGVHTFPAVLQSSGLYSLSSVVTVPSSSLGTQTYICNVNHKPSNTKVDKKVEPKSCDKTHTCPPCPAPELLGGPSVFLFPPKPKDTLMISRTPEVTCVVVDVSHEDPEVKFNWYVDGVEVHNAKTKPREEQYNSTYRVVSVLTVLHQDWLNGKEYKCKVSNKALPAPIEKTISKAKGQPREPQVYVYPPSRDELTKNQVSLTCLVKGFYPSDIAVEWESNGQPENNYKTTPPVLDSDGSFALVSKLTVDKSRWQQGNVFSCSVMHEALHNHYTQKSLSLSPG
heavy 2: not shown
light: DYQMTQSPSSVSASVGDRVTITCRASQSIGDWLAWYQQKPGKAPKLLIYEASTLASGVPSRFSGSGSGTDFTLTISSVQPEDAATYYCQQGYGRSNVDNIFGGGTKVEVKRTVAAPSVFIFPPSDEQLKSGTASVVCLLNNFYPREAKVQWKVDNALQSGNSQESVTEQDSKDSTYSLSSTLTLSKADYEKHKVYACEVTHQGLSSPVTKSFNRGEC
notes: Humanized IgG1/kappa, HetFc; also called 4H4L
For B3, the Kd in experiment [4] was 63 nM. For the same molecule, in experiment [14], the “fold reduced affinity compared to the parental chimera antibody v23924” value amounted to 2 fold.

B4: v30399 (antibody, human IgG1, kappa)
heavy 1: EVQVLESGGGLVQPGGSLRLSCAVSGFSLSSYGVSWVRQAPGKGLEWIGAVNSGGSAYYADWAKGRSTISRDNSKNTVYLQMNSLRAEDTAVYYCARSGSGYPMDYLAIWGQGTLVTVSSASTKGPSVFPLAPSSKSTSGGTAALGCLVKDYFPEPVTVSWNSGALTSGVHTFPAVLQSSGLYSLSSVVTVPSSSLGTQTYICNVNHKPSNTKVDKKVEPKSCDKTHTCPPCPAPELLGGPSVFLFPPKPKDTLMISRTPEVTCVVVDVSHEDPEVKFNWYVDGVEVHNAKTKPREEQYNSTYRVVSVLTVLHQDWLNGKEYKCKVSNKALPAPIEKTISKAKGQPREPQVYVYPPSRDELTKNQVSLTCLVKGFYPSDIAVEWESNGQPENNYKTTPPVLDSDGSFALVSKLTVDKSRWQQGNVFSCSVMHEALHNHYTQKSLSLSPG
heavy 2: not shown
light: DYQMTQSPSSVSASVGDRVTITCRASQSIGDWLAWYQQKPGKAPKLLIYEASTLASGVPSRFSGSGSGTDFTLTISSVQPEDAATYYCQQGYGRSNVDNIFGGGTKVEVKRTVAAPSVFIFPPSDEQLKSGTASVVCLLNNFYPREAKVQWKVDNALQSGNSQESVTEQDSKDSTYSLSSTLTLSKADYEKHKVYACEVTHQGLSSPVTKSFNRGEC
notes: Humanized IgG1/kappa, HetFc; also called 4bH4L
For B4, the Kd in experiment [2] was 3.71 nM; in experiment [4], 69 nM; in [8], 0.709 nM; in experiment [12] it was 2.67 nM. Besides, the “fold lower KD in FSA compared to one-armed antibody (OAA) format” value in experiment [15] stood at 116 fold.
